Test results as given in article PMC8041770, “An engineered ligand trap inhibits leukemia inhibitory factor as pancreatic cancer treatment strategy” (Communications Biology, 2021).

Target: yeast-displayed mouse LIF (mLIF, Ser24 to Phe203) (mouse, UniProt P09056 24-203)
Experiment: flow cytometry on cells; LIF displayed on yeast (EBY100), soluble Fc fusion titrated in PBS with 1 mg/ml BSA, Fc detected with fluorescent secondary antibody; apparent Kd by non-linear regression
Conditions: one partner purified

Kd: 0.16 ± 0.02 nM
B1: mLIFR-Fc (mouse LIFR CBM I–Ig-like–CBM II fused to an antibody Fc domain) (Fc fusion)
chain: LKRGVQDLKCTTNNMRVWDCTWPAPLGVSPGTVKDICIKDRFHSCHPLETTNVKIPALSPGDHEVTINYLNGFQSKFTLNEKDVSLIPETPEILDLSADFFTSSLLLKWNDRGSALPHPSNATWEIKVLQNPRTEPVALVLLNTMLSGKDTVQHWNWTSDLPLQCATHSVSIRWHIDSPHFSGYKEWSDWSPLKNISWIRNTETNVFPQDKVVLAGSNMTICCMSPTKVLSGQIGNTLRPLIHLYGQTVAIHILNIPVSENSGTNIIFITDDDVYGTVVFAGYPPDVPQKLSCETHDLKEIICSWNPGRITGLVGPRNTEYTLFESISGKSAVFHRIEGLTNETYRLGVQMHPGQEIHNFTLTGRNPLGQAQSAVVINVTERVAPHDPTSLKVKDINSTVVTFSWYLPGNFTKINLLCQIEICKANSKKEVRNATIRGAEDSTYHVAVDKLNPYTAYTFRVRCSSKTFWKWSRWSDEKRHLTTEAT
notes: signal peptide in the construct; mouse LIF receptor (mLIFR), three most N-terminal extracellular domains CBM I–Ig-like–CBM II, Met1 to Thr529; also called soluble mLIFR-Fc; mLIFR mIgG2a Fc; source: Expi293F, transfected (pAdd2), purified from medium (Protein-A Sepharose)
